Results taken from US20220401557A1 (Chugai, published 2022).

Target: CD3 on NFAT-RE-luc2-Jurkat cells (human, UniProt P07766 23-207)
Assay: cell-based or functional assay

Chain of CD3 on NFAT-RE-luc2-Jurkat cells (P07766 23-207): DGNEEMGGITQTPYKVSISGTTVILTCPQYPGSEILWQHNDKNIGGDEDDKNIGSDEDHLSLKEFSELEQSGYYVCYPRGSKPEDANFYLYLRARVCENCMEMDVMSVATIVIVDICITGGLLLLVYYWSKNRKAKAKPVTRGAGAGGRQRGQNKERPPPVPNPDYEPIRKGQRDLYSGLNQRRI

Binder | increase rate due to the protease treatment (luciferase, uPA-treated / untreated), antibody 0.1 nM [ratio] | increase rate due to the protease treatment (luciferase, uPA-treated / untreated), antibody 1 nM [ratio]
ANuPA20/GLS//GCH065 (bispecific antibody, human IgG1, kappa, N297A) heavy 1: QDGNEEMGGITQTPYKVSISLSGRSDNHGGGSQVQLVESGGGLVQPGRSLRLSCAASGFTFSNAWMHWVRQAPGKGLEWVAQIKDKANGYNAYYAESVKGRFTISRDDSKNSIYLQMNSLKTEDTAVYYCRYVHYTTYAGFSYKFGVDAWGQGTTVTVSSASTKGPSVFPLAPSSKSTSGGTAALGCLVKDYFPEPVTVSWNSGALTSGVHTFPAVLQSSGLYSLSSVVTVPSSSLGTQTYICNVNHKPSNTKVDKKVEPKSCDKTHTCPPCPAPELRGGPKVFLFPPKPKDTLMISRTPEVTCVVVDVSHEDPEVKFNWYVDGVEVHNAKTKPREEQYASTYRVVSVLTVLHQDWLNGKEYKCKVSNKALPAPIEKTISKAKGQPREPQVYTLPPSRKEMTKNQVSLTCLVKGFYPSDIAVEWESNGQPENNYKTTPPYLDSDGSFFLYSKLTVDKSRWQQGNVFSCSVMHEALHNHYTQKSLSLSP light 1: DIVMTQSPLSLPVTPGEPASISCRSSQSLVHSNRNTYLHWYQQKPGQAPRLLIYKVSNRFSGVPDRFSGSGSGTDFTLKISRVEAEDVGVYYCGQGTQVPYTFGQGTKLEIKRTVAAPSVFIFPPSDEQLKSGTASVVCLLNNFYPREAKVQWKVDNALQSGNSQESVTEQDSKDSTYSLSSTLTLSKADYEKHKVYACEVTHQGLSSPVTKSFNRGEC heavy 2: QVQLVQSGAEVKKPGASVTVSCKASGYTFTDYEMHWIRQPPGEGLEWIGAIDGPTPDTAYSEKFKGRVTLTADKSTSTAYMELSSLTSEDTAVYYCTRFYSYTYWGQGTLVTVSSASTKGPSVFPLAPSSKSTSGGTAALGCLVKDYFPEPVTVSWNSGALTSGVHTFPAVLQSSGLYSLSSVVTVPSSSLGTQTYICNVNHKPSNTKVDKKVEPKSCDKTHTCPPCPAPELRGGPKVFLFPPKPKDTLMISRTPEVTCVVVDVSHEDPEVKFNWYVDGVEVHNAKTKPREEQYASTYRVVSVLTVLHQDWLNGKEYKCKVSNKALPAPIEKTISKAKGQPREPQVYTLPPSREEMTKNQVSLTCLVKGFYPSDIAVEWESNGQPENNYKTTPPYLDSDGSFFLYSKLTVDKSRWQQGNVFSCSVMHEALHNHYTQESLSLSP light 2: DIVMTQSPLSLPVTPGEPASISCRSSQPLVHSNRNTYLHWYQQKPGQAPRLLIYKVSNRFSGVPDRFSGSGSGTDFTLKISRVEAEDVGVYYCGQGTQVPYTFGQGTKLEIKRTVAAPSVFIFPPSDEQLKSGTASVVCLLNNFYPREAKVQWKVDNALQSGNSQESVTEQDSKDSTYSLSSTLTLSKADYEKHKVYACEVTHQGLSSPVTKSFNRGEC | 1.5 | 2.2
ANuPA27/GLS//GCH065 (bispecific antibody, human IgG1, kappa, N297A) heavy 1: QDGNEEMGGITQTPYKVSISGTTVILTLSGRSDNHQVQLVESGGGLVQPGRSLRLSCAASGFTFSNAWMHWVRQAPGKGLEWVAQIKDKANGYNAYYAESVKGRFTISRDDSKNSIYLQMNSLKTEDTAVYYCRYVHYTTYAGFSYKFGVDAWGQGTTVTVSSASTKGPSVFPLAPSSKSTSGGTAALGCLVKDYFPEPVTVSWNSGALTSGVHTFPAVLQSSGLYSLSSVVTVPSSSLGTQTYICNVNHKPSNTKVDKKVEPKSCDKTHTCPPCPAPELRGGPKVFLFPPKPKDTLMISRTPEVTCVVVDVSHEDPEVKFNWYVDGVEVHNAKTKPREEQYASTYRVVSVLTVLHQDWLNGKEYKCKVSNKALPAPIEKTISKAKGQPREPQVYTLPPSRKEMTKNQVSLTCLVKGFYPSDIAVEWESNGQPENNYKTTPPYLDSDGSFFLYSKLTVDKSRWQQGNVFSCSVMHEALHNHYTQKSLSLSP light 1: DIVMTQSPLSLPVTPGEPASISCRSSQSLVHSNRNTYLHWYQQKPGQAPRLLIYKVSNRFSGVPDRFSGSGSGTDFTLKISRVEAEDVGVYYCGQGTQVPYTFGQGTKLEIKRTVAAPSVFIFPPSDEQLKSGTASVVCLLNNFYPREAKVQWKVDNALQSGNSQESVTEQDSKDSTYSLSSTLTLSKADYEKHKVYACEVTHQGLSSPVTKSFNRGEC heavy 2: QVQLVQSGAEVKKPGASVTVSCKASGYTFTDYEMHWIRQPPGEGLEWIGAIDGPTPDTAYSEKFKGRVTLTADKSTSTAYMELSSLTSEDTAVYYCTRFYSYTYWGQGTLVTVSSASTKGPSVFPLAPSSKSTSGGTAALGCLVKDYFPEPVTVSWNSGALTSGVHTFPAVLQSSGLYSLSSVVTVPSSSLGTQTYICNVNHKPSNTKVDKKVEPKSCDKTHTCPPCPAPELRGGPKVFLFPPKPKDTLMISRTPEVTCVVVDVSHEDPEVKFNWYVDGVEVHNAKTKPREEQYASTYRVVSVLTVLHQDWLNGKEYKCKVSNKALPAPIEKTISKAKGQPREPQVYTLPPSREEMTKNQVSLTCLVKGFYPSDIAVEWESNGQPENNYKTTPPYLDSDGSFFLYSKLTVDKSRWQQGNVFSCSVMHEALHNHYTQESLSLSP light 2: DIVMTQSPLSLPVTPGEPASISCRSSQPLVHSNRNTYLHWYQQKPGQAPRLLIYKVSNRFSGVPDRFSGSGSGTDFTLKISRVEAEDVGVYYCGQGTQVPYTFGQGTKLEIKRTVAAPSVFIFPPSDEQLKSGTASVVCLLNNFYPREAKVQWKVDNALQSGNSQESVTEQDSKDSTYSLSSTLTLSKADYEKHKVYACEVTHQGLSSPVTKSFNRGEC | 0.9 | 0.9

Other lines, results leading:

increase rate due to the protease treatment (luciferase, uPA-treated / untreated), antibody 0.1 nM [ratio] | increase rate due to the protease treatment (luciferase, uPA-treated / untreated), antibody 1 nM [ratio] | Binder
1 | 0.9 | hCE115HA/GLSGS//GCH065 (bispecific antibody, human IgG1, kappa, N297A) heavy 1: QVQLVESGGGVVQPGRSLRLSCAASGFTFSNAWMHWVRQAPGKGLEWVAQIKAKSNNYATYYAESVKGRFTISRDDSKNSLYLQMNSLKTEDTAVYYCRYVHYGAYYGVDAWGQGTTVTVSSASTKGPSVFPLAPSSKSTSGGTAALGCLVKDYFPEPVTVSWNSGALTSGVHTFPAVLQSSGLYSLSSVVTVPSSSLGTQTYICNVNHKPSNTKVDKKVEPKSCDKTHTCPPCPAPELRGGPKVFLFPPKPKDTLMISRTPEVTCVVVDVSHEDPEVKFNWYVDGVEVHNAKTKPREEQYASTYRVVSVLTVLHQDWLNGKEYKCKVSNKALPAPIEKTISKAKGQPREPQVYTLPPSRKEMTKNQVSLTCLVKGFYPSDIAVEWESNGQPENNYKTTPPYLDSDGSFFLYSKLTVDKSRWQQGNVFSCSVMHEALHNHYTQKSLSLSP light 1: QDGNEGGGSGGGSGGGSDIVMTQSPLSLPVTPGEPASISCRSSQSLVHSNRNTYLHWYQQKPGQAPRLLIYKVSNRFSGVPDRFSGSGSGTDFTLKISRVEAEDVGVYYCGQGTQVPYTFGQGTKLEIKRTVAAPSVFIFPPSDEQLKSGTASVVCLLNNFYPREAKVQWKVDNALQSGNSQESVTEQDSKDSTYSLSSTLTLSKADYEKHKVYACEVTHQGLSSPVTKSFNRGEC heavy 2: QVQLVQSGAEVKKPGASVTVSCKASGYTFTDYEMHWIRQPPGEGLEWIGAIDGPTPDTAYSEKFKGRVTLTADKSTSTAYMELSSLTSEDTAVYYCTRFYSYTYWGQGTLVTVSSASTKGPSVFPLAPSSKSTSGGTAALGCLVKDYFPEPVTVSWNSGALTSGVHTFPAVLQSSGLYSLSSVVTVPSSSLGTQTYICNVNHKPSNTKVDKKVEPKSCDKTHTCPPCPAPELRGGPKVFLFPPKPKDTLMISRTPEVTCVVVDVSHEDPEVKFNWYVDGVEVHNAKTKPREEQYASTYRVVSVLTVLHQDWLNGKEYKCKVSNKALPAPIEKTISKAKGQPREPQVYTLPPSREEMTKNQVSLTCLVKGFYPSDIAVEWESNGQPENNYKTTPPYLDSDGSFFLYSKLTVDKSRWQQGNVFSCSVMHEALHNHYTQESLSLSP light 2: DIVMTQSPLSLPVTPGEPASISCRSSQPLVHSNRNTYLHWYQQKPGQAPRLLIYKVSNRFSGVPDRFSGSGSGTDFTLKISRVEAEDVGVYYCGQGTQVPYTFGQGTKLEIKRTVAAPSVFIFPPSDEQLKSGTASVVCLLNNFYPREAKVQWKVDNALQSGNSQESVTEQDSKDSTYSLSSTLTLSKADYEKHKVYACEVTHQGLSSPVTKSFNRGEC
1.1 | 8.2 | hCE115HA/GLSuPA04//GCH065 (bispecific antibody, human IgG1, kappa, N297A) heavy 1: QVQLVESGGGVVQPGRSLRLSCAASGFTFSNAWMHWVRQAPGKGLEWVAQIKAKSNNYATYYAESVKGRFTISRDDSKNSLYLQMNSLKTEDTAVYYCRYVHYGAYYGVDAWGQGTTVTVSSASTKGPSVFPLAPSSKSTSGGTAALGCLVKDYFPEPVTVSWNSGALTSGVHTFPAVLQSSGLYSLSSVVTVPSSSLGTQTYICNVNHKPSNTKVDKKVEPKSCDKTHTCPPCPAPELRGGPKVFLFPPKPKDTLMISRTPEVTCVVVDVSHEDPEVKFNWYVDGVEVHNAKTKPREEQYASTYRVVSVLTVLHQDWLNGKEYKCKVSNKALPAPIEKTISKAKGQPREPQVYTLPPSRKEMTKNQVSLTCLVKGFYPSDIAVEWESNGQPENNYKTTPPYLDSDGSFFLYSKLTVDKSRWQQGNVFSCSVMHEALHNHYTQKSLSLSP light 1: QDGNEEMGGGSGGGSGGGSLSGRSDNHGGGSDIVMTQSPLSLPVTPGEPASISCRSSQSLVHSNRNTYLHWYQQKPGQAPRLLIYKVSNRFSGVPDRFSGSGSGTDFTLKISRVEAEDVGVYYCGQGTQVPYTFGQGTKLEIKRTVAAPSVFIFPPSDEQLKSGTASVVCLLNNFYPREAKVQWKVDNALQSGNSQESVTEQDSKDSTYSLSSTLTLSKADYEKHKVYACEVTHQGLSSPVTKSFNRGEC heavy 2: QVQLVQSGAEVKKPGASVTVSCKASGYTFTDYEMHWIRQPPGEGLEWIGAIDGPTPDTAYSEKFKGRVTLTADKSTSTAYMELSSLTSEDTAVYYCTRFYSYTYWGQGTLVTVSSASTKGPSVFPLAPSSKSTSGGTAALGCLVKDYFPEPVTVSWNSGALTSGVHTFPAVLQSSGLYSLSSVVTVPSSSLGTQTYICNVNHKPSNTKVDKKVEPKSCDKTHTCPPCPAPELRGGPKVFLFPPKPKDTLMISRTPEVTCVVVDVSHEDPEVKFNWYVDGVEVHNAKTKPREEQYASTYRVVSVLTVLHQDWLNGKEYKCKVSNKALPAPIEKTISKAKGQPREPQVYTLPPSREEMTKNQVSLTCLVKGFYPSDIAVEWESNGQPENNYKTTPPYLDSDGSFFLYSKLTVDKSRWQQGNVFSCSVMHEALHNHYTQESLSLSP light 2: DIVMTQSPLSLPVTPGEPASISCRSSQPLVHSNRNTYLHWYQQKPGQAPRLLIYKVSNRFSGVPDRFSGSGSGTDFTLKISRVEAEDVGVYYCGQGTQVPYTFGQGTKLEIKRTVAAPSVFIFPPSDEQLKSGTASVVCLLNNFYPREAKVQWKVDNALQSGNSQESVTEQDSKDSTYSLSSTLTLSKADYEKHKVYACEVTHQGLSSPVTKSFNRGEC
